In patent US20120271039, “METHOD FOR PURIFYING ACTIVE GLA-DOMAIN COAGULATION PROTEINS” (LFB BIOTECHNOLOGIES, published 2012):

Columns and labels:
[1] = biological target: T1, Coagulation Factor IX (recombinant) (Homo sapiens, UniProt P00740 P00740:47-461); assay: SPR; highest affinity of the 30 core aptamers; FIX immobilized; 50 mM Tris, 10 mM CaCl2, 4 mM MgCl2, pH 7.5; details: tags: BeneFIX (nonacog alfa, Wyeth); correctly gamma-carboxylated
Procedure: (§1) Each sample was injected sequentially onto the same chip (solid support) containing the immobilized human recombinant FIX. Controls are obtained by injecting blanks containing only run buffer. All the injections were carried out with a flow rate of 30 μl/min for 60 sec; after the injection, run buffer was injected onto the chip at an identical flow rate for 120 sec.
(§2) Elution buffer (10 mM EDTA) was then injected for 60 sec with a flow rate of 30 μl/min to uncouple the aptamer from the immobilized human FIX.
(§3) The chip makes it possible to observe in real time the formation and the disruption of interactions between the immobilized human recombinant FIX and each of the aptamers, having the sequences SEQ ID Nos. 3 and 6 to 35, tested, through surface plasmon resonance (SPR). Binding to the immobilized recombinant human FIX generates an increase in signal expressed in resonance units (RU) recorded by the apparatus (FIG. 6). These analyses are carried out with the Biacore T100 SPR apparatus (GE). The modeling of the recorded interactions is carried out by means of the Biaevaluation software (GE).

[2] = biological target: T1, Coagulation Factor IX (recombinant); assay: SPR; FIX immobilized; 50 mM Tris, 10 mM CaCl2, 4 mM MgCl2, pH 7.5; details: tags: BeneFIX (nonacog alfa, Wyeth); correctly gamma-carboxylated
Procedure: as §1, §2, §3

[3] = biological target: Coagulation Factor VII (plasma) (Homo sapiens, UniProt P08709 P08709:61-466); assay: affinity chromatography; Ca/Mg buffer, EDTA elution; details: tags: plasma FVII (98-99% pure; ACSET, LFB, in column tests); label: biotin
Procedure: The FVII is eluted with a 20 mM Tris-HCl+10 mM EDTA buffer at pH 7.5. The elution peak is collected according to the OD profile.
In FIG. 15, the injection (1) of human plasma […] concentrate is followed rapidly by the elimination peak (2) of the fraction not retained on the affinity support. The affinity support continues to saturate with the coagulation protein of interest: complexes between (i) the anti-GLA nucleic aptamers of the affinity support and (ii) the human plasma FVII molecules initially contained in the composition to be purified were formed. After running the composition to be purified, a step of washing the column with the previously specified washing buffer is carried out. Then, the elution step is carried out by injecting the elution buffer solution comprising a final concentration of 10 mM of EDTA.

T1 sequence (P00740 47-461, one chain of several): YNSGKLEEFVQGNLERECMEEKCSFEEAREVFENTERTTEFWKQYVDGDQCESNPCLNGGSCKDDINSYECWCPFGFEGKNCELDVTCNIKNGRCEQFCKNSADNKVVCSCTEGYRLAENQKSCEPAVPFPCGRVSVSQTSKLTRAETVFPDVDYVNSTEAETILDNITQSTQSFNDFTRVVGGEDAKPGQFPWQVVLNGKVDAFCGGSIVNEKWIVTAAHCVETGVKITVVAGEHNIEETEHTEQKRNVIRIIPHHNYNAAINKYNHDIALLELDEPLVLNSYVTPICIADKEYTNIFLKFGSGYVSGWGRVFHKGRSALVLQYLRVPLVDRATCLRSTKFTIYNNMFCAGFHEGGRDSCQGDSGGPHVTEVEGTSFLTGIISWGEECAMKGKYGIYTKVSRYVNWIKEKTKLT
Chain of Coagulation Factor VII (plasma) (P08709 61-466, one chain of several): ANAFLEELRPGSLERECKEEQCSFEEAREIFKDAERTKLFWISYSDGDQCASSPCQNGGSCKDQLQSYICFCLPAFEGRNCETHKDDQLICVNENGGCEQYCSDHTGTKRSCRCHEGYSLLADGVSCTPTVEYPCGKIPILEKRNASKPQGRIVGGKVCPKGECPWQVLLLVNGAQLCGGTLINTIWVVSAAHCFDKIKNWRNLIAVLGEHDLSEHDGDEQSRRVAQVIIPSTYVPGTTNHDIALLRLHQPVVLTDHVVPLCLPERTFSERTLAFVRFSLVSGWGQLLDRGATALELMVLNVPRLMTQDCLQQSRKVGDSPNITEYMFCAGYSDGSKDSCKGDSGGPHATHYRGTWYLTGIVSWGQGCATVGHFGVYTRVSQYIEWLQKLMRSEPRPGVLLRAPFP

CGCACATGACTTGAAGTAAAACGCGAATTACAGACCAAACCCG (ssDNA) [Mapt-1.2-CS]: binds [1].

CGCACATGACTTGAAGTTAAACGCGAATTACAAACCCAGCCCCC (ssDNA) [Mapt-1 core sequence (Mapt-1-CS)]: binds [2].

CCGCACACCACGCGCATGACCCCGCGCACACGACTTGAAGTAGC (ssDNA) [Mapt-2-CS]: binds [3].
